Test results published in publication PMC4434323.

Columns and labels:
[1] = biological target: T1, nhr-7 (F54D1.4) (Caenorhabditis elegans) (UniProt Q20765)
T1 sequence: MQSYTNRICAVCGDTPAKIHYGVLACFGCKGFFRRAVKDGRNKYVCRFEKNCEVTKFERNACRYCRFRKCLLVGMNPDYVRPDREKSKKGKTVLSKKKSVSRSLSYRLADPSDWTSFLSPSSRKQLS

[2] = biological target: T2, nhr-3 (H01A20.1) (Caenorhabditis elegans) (UniProt Q9XTJ4)
T2 sequence: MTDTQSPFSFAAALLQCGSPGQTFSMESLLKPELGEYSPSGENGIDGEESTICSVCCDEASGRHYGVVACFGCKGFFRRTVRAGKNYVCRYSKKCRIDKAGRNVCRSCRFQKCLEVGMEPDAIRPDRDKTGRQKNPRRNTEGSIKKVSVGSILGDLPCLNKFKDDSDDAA

[3] = biological target: T3, nhr-46 (C45E5.6) (Caenorhabditis elegans) (UniProt Q95QR2)
T3 sequence: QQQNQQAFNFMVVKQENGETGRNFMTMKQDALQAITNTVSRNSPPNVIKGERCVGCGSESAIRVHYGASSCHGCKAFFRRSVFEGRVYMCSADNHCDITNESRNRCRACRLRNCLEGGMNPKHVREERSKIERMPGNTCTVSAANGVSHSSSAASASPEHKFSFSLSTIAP

[4] = biological target: nhr-34 (F58G6.5) (Caenorhabditis elegans) (UniProt Q21006)
Chain of nhr-34 (F58G6.5) (Caenorhabditis elegans) (Q21006 99-268): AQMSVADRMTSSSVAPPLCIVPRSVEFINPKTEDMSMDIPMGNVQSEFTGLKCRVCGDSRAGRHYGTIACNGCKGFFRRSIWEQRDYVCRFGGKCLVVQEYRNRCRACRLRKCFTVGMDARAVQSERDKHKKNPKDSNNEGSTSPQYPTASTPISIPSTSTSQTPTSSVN

[5] = biological target: T4, nhr-1 (R09G11.2) (Caenorhabditis elegans) (UniProt Q21878)
T4 sequence: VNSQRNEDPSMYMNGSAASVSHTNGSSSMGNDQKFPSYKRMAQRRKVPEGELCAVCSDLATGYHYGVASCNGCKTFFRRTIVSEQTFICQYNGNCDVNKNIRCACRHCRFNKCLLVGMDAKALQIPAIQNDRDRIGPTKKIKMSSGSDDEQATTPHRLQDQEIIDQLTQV

[6] = biological target: T5, C46E10.8 (C46E10.8) (Caenorhabditis elegans) (UniProt O44719)
T5 sequence: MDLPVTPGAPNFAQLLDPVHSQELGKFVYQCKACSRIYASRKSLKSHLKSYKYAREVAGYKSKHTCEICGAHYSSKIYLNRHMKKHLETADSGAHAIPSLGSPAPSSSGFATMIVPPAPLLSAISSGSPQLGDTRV

[7] = biological target: T6, dmd-6 (F13G11.1) (Caenorhabditis elegans) (UniProt O62159)
T6 sequence: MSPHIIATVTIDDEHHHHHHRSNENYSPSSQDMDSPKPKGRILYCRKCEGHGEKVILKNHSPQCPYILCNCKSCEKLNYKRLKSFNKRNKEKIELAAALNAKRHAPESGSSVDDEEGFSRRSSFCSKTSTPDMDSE

[8] = biological target: T7, xbp-1 (R74.3) (Caenorhabditis elegans) (UniProt G5EE07)
T7 sequence: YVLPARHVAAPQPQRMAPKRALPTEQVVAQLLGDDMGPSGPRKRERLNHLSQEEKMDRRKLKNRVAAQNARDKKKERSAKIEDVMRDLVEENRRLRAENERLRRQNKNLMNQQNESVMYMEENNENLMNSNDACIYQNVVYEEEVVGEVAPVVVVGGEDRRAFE

[9] = biological target: T8, atf-5 (T04C10.4) (Caenorhabditis elegans) (UniProt Q22156)
T8 sequence: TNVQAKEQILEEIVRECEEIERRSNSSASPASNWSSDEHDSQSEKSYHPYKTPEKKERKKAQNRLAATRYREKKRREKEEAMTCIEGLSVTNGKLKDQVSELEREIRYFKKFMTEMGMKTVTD

[10] = biological target: atf-7 (C07G2.2) (Caenorhabditis elegans) (UniProt Q86MD3)
Chain of atf-7 (C07G2.2) (Caenorhabditis elegans) (Q86MD3 339-508): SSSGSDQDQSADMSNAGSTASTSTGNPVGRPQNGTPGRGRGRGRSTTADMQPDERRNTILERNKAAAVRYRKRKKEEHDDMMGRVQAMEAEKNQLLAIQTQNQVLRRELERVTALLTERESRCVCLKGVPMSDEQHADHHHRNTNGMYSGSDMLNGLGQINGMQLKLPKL

[11] = biological target: T9, zip-3 (W07G1.3) (Caenorhabditis elegans) (UniProt Q9XUK2)
T9 sequence: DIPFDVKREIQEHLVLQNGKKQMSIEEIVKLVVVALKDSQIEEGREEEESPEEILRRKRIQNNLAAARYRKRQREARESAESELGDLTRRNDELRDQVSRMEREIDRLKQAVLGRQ

[12] = biological target: T10, pop-1 (W10C8.2) (Caenorhabditis elegans) (UniProt Q10666)
T10 sequence: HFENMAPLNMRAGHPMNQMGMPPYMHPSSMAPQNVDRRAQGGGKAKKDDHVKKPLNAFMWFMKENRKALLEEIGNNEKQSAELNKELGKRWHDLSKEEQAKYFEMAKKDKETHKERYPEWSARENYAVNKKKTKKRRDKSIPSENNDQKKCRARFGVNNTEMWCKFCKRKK

[13] = biological target: T11, ref-2 (C47C12.3) (Caenorhabditis elegans) (UniProt Q7JNM3)
T11 sequence: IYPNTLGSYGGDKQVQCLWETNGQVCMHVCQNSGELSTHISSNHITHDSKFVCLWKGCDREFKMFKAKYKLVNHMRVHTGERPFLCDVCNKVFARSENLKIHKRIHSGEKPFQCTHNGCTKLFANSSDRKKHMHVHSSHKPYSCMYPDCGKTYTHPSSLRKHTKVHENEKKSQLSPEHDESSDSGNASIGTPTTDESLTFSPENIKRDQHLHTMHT

“AAAGATCA (double strand) [8-mer AAAGATCA]” was tested, and the binding signal (PBM E-score (-0.5 to 0.5)) [1] was 0.476, the binding signal (PBM E-score (-0.5 to 0.5)) [2] was 0.488 and the binding signal (PBM E-score (-0.5 to 0.5)) [3] was 0.49. For the same sequence, the binding signal (PBM E-score (-0.5 to 0.5)) [4] was 0.485 and the binding signal (PBM E-score (-0.5 to 0.5)) [5] was 0.472.
In the case of “AAGATCAA (double strand) [8-mer AAGATCAA]”, the binding signal (PBM E-score (-0.5 to 0.5)) [1] is reported as 0.455, the binding signal (PBM E-score (-0.5 to 0.5)) [2] is reported as 0.486 and the binding signal (PBM E-score (-0.5 to 0.5)) [3] is reported as 0.496. For the same sequence, the binding signal (PBM E-score (-0.5 to 0.5)) [4] was 0.494.
Work on “AATTTATA (double strand) [8-mer AATTTATA]” yielded a binding signal (PBM E-score (-0.5 to 0.5)) [6] of 0.457 and a binding signal (PBM E-score (-0.5 to 0.5)) [7] of 0.471.
“AATTTATG (double strand) [8-mer AATTTATG]” showed a binding signal (PBM E-score (-0.5 to 0.5)) [6] of 0.465.
“ACGTCATC (double strand) [8-mer ACGTCATC]” showed a binding signal (PBM E-score (-0.5 to 0.5)) [8] of 0.471, a binding signal (PBM E-score (-0.5 to 0.5)) [9] of 0.49 and a binding signal (PBM E-score (-0.5 to 0.5)) [10] of 0.499. It also gave a binding signal (PBM E-score (-0.5 to 0.5)) [11] of 0.493.
Sequence “ATAAATTA (double strand) [8-mer ATAAATTA]” has a binding signal (PBM E-score (-0.5 to 0.5)) [6] of 0.451.
“ATCAAAGA (double strand) [8-mer ATCAAAGA]” showed a binding signal (PBM E-score (-0.5 to 0.5)) [12] of 0.456.
Work on “ATGACGTG (double strand) [8-mer ATGACGTG]” yielded a binding signal (PBM E-score (-0.5 to 0.5)) [8] of 0.451, a binding signal (PBM E-score (-0.5 to 0.5)) [9] of 0.485 and a binding signal (PBM E-score (-0.5 to 0.5)) [10] of 0.499. For the same sequence, the binding signal (PBM E-score (-0.5 to 0.5)) [11] was 0.494.
“CAGCGGGA (double strand) [8-mer CAGCGGGA]” gave a binding signal (PBM E-score (-0.5 to 0.5)) [13] of 0.483.
